Numbering of substitutions follows the chain as printed. In names and notes the source's numbering stands.
B1: FS20-22-49AA/FS30-10-3 (bispecific antibody, human IgG1, kappa, L234A L235A, V domains shown)
VH: EVQLLESGGGLVQPGGSLRLSCAASGFTFSSYDMSWVRQAPGKGLEWVSDIDPTGSKTDYADSVKGRFTISRDNSKNTLYLQMNSLRAEDTAVYYCARDLNVYGFDYWGQGTLVTVSS
VL: EIVLTQSPGTLSLSPGERATLSCRASQSVSSSYLAWYQQKPGQAPRLLIYGASSRATGIPDRFSGSGSGTDFTLTISRLEPEDFAVYYCQQSYSYPVTFGQGTKVEIKR
notes: M97 (Kabat) to N against FS30-10; also called FS30-10-3 in mAb^2 format
B2: FS20-22-49AA/FS30-10-12 (bispecific antibody, human IgG1, kappa, L234A L235A, V domains shown)
VH: B1 VH with N101T
VL: B1 VL
notes: M97 (Kabat) to T against FS30-10; also called FS30-10-12 in mAb^2 format
B3: FS20-22-49AA/FS30-10-16 (bispecific antibody, human IgG1, kappa, L234A L235A, V domains shown)
VH: B1 VH with N101L
VL: B1 VL
notes: M97 (Kabat) to L against FS30-10; also called FS30-10-16 in mAb^2 format
B4: FS20-22-49AA/FS30-5-37 (bispecific antibody, human IgG1, kappa, L234A L235A, V domains shown)
VH: EVQLLESGGGLVQPGGSLRLNCAASGFTFSSYAMSWVRQAPGKGLEWVSAISGSGGSTYYADSVKGRFTISRDNSKNTLYLQMNSLRAEDTAVYYCARSYDKYWGSSIYSGLDYWGQGTLVTVSS
VL: EIVLTQSPGTLSLSPGERATLSCRASQSVSSSYLAWYQQKPGQAPRLLIYGASSRATGIPDRFSGSGSGTDFTLTISRLEPEDFAVYYCQQYYSYYPVTFGQGTKVEIKR
notes: M100D to I and M100H to L against FS30-5; also called FS30-5-37 in mAb^2 format
B5: FS20-22-49AA/FS30-35-14 (bispecific antibody, human IgG1, kappa, L234A L235A, V domains shown)
VH: EVQLLESGGGLVQPGGSLRLSCAASGFTFSAYNIHWVRQAPGKGLEWVSDISPYGGATNYADSVKGRFTISRDNSKNTLYLQMNSLRAEDTAVYYCARNLYELSAYSYGADYWGQGTLVTVSS
VL: B4 VL with S94Y, Y95S, Y96S, V98I
notes: M100F (Kabat) to A against FS30-35; also called FS30-35-14 in mAb^2 format

Each binder was assayed against human CD137 on DO11.10-hCD137 cells (human, UniProt Q07011 24-255) (assay: cell-based or functional assay).
For B1, the “EC50 (nM), mIL-2 release, DO11.10-hCD137 T cell assay, crosslinked (mean of n = 2)” value was 6.1 nM and the “Emax (mIL-2 pg/ml), DO11.10-hCD137 T cell assay, crosslinked” value was 17000 pg/mL. For B2, the “EC50 (nM), mIL-2 release, DO11.10-hCD137 T cell assay, crosslinked (mean of n = 2)” value was 9.5 nM and the “Emax (mIL-2 pg/ml), DO11.10-hCD137 T cell assay, crosslinked” value was 17200 pg/mL. For B3, the “EC50 (nM), mIL-2 release, DO11.10-hCD137 T cell assay, crosslinked (mean of n = 2)” value was 4.7 nM and the “Emax (mIL-2 pg/ml), DO11.10-hCD137 T cell assay, crosslinked” value was 16300 pg/mL. In the case of B4, the “EC50 (nM), mIL-2 release, DO11.10-hCD137 T cell assay, crosslinked (mean of n = 2)” value is reported as 13.4 nM and the “Emax (mIL-2 pg/ml), DO11.10-hCD137 T cell assay, crosslinked” value is reported as 18100 pg/mL. In the case of B5, the “EC50 (nM), mIL-2 release, DO11.10-hCD137 T cell assay, crosslinked (mean of n = 2)” value is reported as 5.1 nM and the “Emax (mIL-2 pg/ml), DO11.10-hCD137 T cell assay, crosslinked” value is reported as 19800 pg/mL.

Target: T1, cyno CD137 on DO11.10-cCD137 cells (cynomolgus, UniProt Q07011 24-255 (human entry))
T1 chain: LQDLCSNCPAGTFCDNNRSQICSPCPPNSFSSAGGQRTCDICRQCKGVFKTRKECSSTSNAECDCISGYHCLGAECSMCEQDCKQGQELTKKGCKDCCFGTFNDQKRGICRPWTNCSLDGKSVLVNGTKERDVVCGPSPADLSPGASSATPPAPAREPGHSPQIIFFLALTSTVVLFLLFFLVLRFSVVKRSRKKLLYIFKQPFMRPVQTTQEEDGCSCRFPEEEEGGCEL
Assay: cell-based or functional assay
In the case of B1, the “EC50 (nM), mIL-2 release, DO11.10-cCD137 T cell assay, crosslinked (mean of n = 2)” value is reported as 5 nM and the “Emax (mIL-2 pg/ml), DO11.10-cCD137 T cell assay, crosslinked” value is reported as 49400 pg/mL. With B2 the “EC50 (nM), mIL-2 release, DO11.10-cCD137 T cell assay, crosslinked (mean of n = 2)” value was 5.8 nM and the “Emax (mIL-2 pg/ml), DO11.10-cCD137 T cell assay, crosslinked” value was 46900 pg/mL. In the case of B3, the “EC50 (nM), mIL-2 release, DO11.10-cCD137 T cell assay, crosslinked (mean of n = 2)” value is reported as 3.7 nM and the “Emax (mIL-2 pg/ml), DO11.10-cCD137 T cell assay, crosslinked” value is reported as 50100 pg/mL. For B4, the “EC50 (nM), mIL-2 release, DO11.10-cCD137 T cell assay, crosslinked (mean of n = 2)” value was 7.5 nM and the “Emax (mIL-2 pg/ml), DO11.10-cCD137 T cell assay, crosslinked” value was 45700 pg/mL. In the case of B5, the “EC50 (nM), mIL-2 release, DO11.10-cCD137 T cell assay, crosslinked (mean of n = 2)” value is reported as 6.6 nM and the “Emax (mIL-2 pg/ml), DO11.10-cCD137 T cell assay, crosslinked” value is reported as 69700 pg/mL.

The binders below were run against T2, TNFRSF1A-Fc (human, UniProt P19438 30-211, limits assumed) (assay: SPR, antigen immobilised on CM5 chip).
T2 construct: bought; also called TNFRSF1A (R&D Systems, 372-RI-050/CF); not shown: Fc part of the bought fusion
T2 sequence (looked up): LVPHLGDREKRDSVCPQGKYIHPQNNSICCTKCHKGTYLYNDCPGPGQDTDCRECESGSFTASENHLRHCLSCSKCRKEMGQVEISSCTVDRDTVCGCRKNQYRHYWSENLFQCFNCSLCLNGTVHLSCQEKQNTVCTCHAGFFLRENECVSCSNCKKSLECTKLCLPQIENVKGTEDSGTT
B1: no binding (tested: 1 µM (protocol of Example 3.1)). B2: no binding (tested: 1 µM (protocol of Example 3.1)). B3: no binding (tested: 1 µM (protocol of Example 3.1)). B4: no binding (tested: 1 µM (protocol of Example 3.1)). B5: no binding (tested: 1 µM (protocol of Example 3.1)).

What follows are binders tested against T3, TNFRSF1B-Fc (human, UniProt P20333 23-257) (assay: SPR, antigen immobilised on CM5 chip).
T3 construct: bought; also called TNFRSF1B (R&D Systems, 726-R2-050); not shown: Fc part of the bought fusion
T3 sequence (looked up): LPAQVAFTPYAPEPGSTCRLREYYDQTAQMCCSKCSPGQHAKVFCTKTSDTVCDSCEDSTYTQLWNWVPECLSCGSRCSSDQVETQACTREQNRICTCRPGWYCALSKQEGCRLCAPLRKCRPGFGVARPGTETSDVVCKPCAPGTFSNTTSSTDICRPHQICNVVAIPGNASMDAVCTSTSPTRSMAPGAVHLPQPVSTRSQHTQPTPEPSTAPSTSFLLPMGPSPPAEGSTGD
B1: no binding (tested: 1 µM (protocol of Example 3.1)). B2: no binding (tested: 1 µM (protocol of Example 3.1)). B3: no binding (tested: 1 µM (protocol of Example 3.1)). B4: no binding (tested: 1 µM (protocol of Example 3.1)). B5: no binding (tested: 1 µM (protocol of Example 3.1)).

These binders were tested against T4, GITR-hFc-Avi (human, UniProt Q9Y5U5 26-161) (assay: SPR, antigen immobilised on CM5 chip).
T4 construct: in-house produced; not shown: hFc and Avi part
T4 sequence: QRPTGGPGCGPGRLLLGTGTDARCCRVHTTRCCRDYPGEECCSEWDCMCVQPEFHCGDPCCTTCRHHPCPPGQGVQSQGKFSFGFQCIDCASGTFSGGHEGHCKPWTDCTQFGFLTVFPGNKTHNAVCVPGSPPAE
B1: no binding (tested: 1 µM (protocol of Example 3.1)). B2: no binding (tested: 1 µM (protocol of Example 3.1)). B3: no binding (tested: 1 µM (protocol of Example 3.1)). B4: no binding (tested: 1 µM (protocol of Example 3.1)). B5: no binding (tested: 1 µM (protocol of Example 3.1)).

The binders below were run against T5, NGFR-Fc (human, UniProt P08138 29-250) (assay: SPR, antigen immobilised on CM5 chip).
T5 construct: bought; also called NGFR (R&D Systems, 367-NR-050/CF); not shown: Fc part of the bought fusion
T5 sequence (looked up): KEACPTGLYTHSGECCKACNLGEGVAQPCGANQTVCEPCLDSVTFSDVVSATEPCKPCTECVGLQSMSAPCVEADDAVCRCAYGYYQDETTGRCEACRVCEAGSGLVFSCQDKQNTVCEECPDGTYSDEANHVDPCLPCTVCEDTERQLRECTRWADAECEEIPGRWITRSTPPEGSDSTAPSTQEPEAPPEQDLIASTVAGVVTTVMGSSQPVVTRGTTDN
B1: no binding (tested: 1 µM (protocol of Example 3.1)). B2: no binding (tested: 1 µM (protocol of Example 3.1)). B3: no binding (tested: 1 µM (protocol of Example 3.1)). B4: no binding (tested: 1 µM (protocol of Example 3.1)). B5: no binding (tested: 1 µM (protocol of Example 3.1)).

Each binder was assayed against T6, CD40-mFc (human, UniProt P25942 21-193) (assay: SPR, antigen immobilised on CM5 chip).
T6 construct: in-house produced; not shown: mFc part
B1: no binding (tested: 1 µM (protocol of Example 3.1)). B2: no binding (tested: 1 µM (protocol of Example 3.1)). B3: no binding (tested: 1 µM (protocol of Example 3.1)). B4: no binding (tested: 1 µM (protocol of Example 3.1)). B5: no binding (tested: 1 µM (protocol of Example 3.1)).

Each binder was assayed against T7, DR6-Fc (human, UniProt O75509 42-349, limits assumed) (assay: SPR, antigen immobilised on CM5 chip).
T7 construct: bought; also called human DR6 (R&D Systems, 144-DR-100); not shown: Fc part of the bought fusion
T7 sequence (looked up): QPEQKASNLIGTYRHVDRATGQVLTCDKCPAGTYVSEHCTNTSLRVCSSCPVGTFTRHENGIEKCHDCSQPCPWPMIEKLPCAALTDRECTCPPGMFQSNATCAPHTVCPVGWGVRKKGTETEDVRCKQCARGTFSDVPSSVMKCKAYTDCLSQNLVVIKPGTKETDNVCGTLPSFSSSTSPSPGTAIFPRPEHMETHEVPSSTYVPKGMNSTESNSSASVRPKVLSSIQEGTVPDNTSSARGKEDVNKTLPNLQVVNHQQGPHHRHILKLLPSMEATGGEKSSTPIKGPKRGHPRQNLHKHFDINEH
B1: no binding (tested: 1 µM (protocol of Example 3.1)). B2: no binding (tested: 1 µM (protocol of Example 3.1)). B3: no binding (tested: 1 µM (protocol of Example 3.1)). B4: no binding (tested: 1 µM (protocol of Example 3.1)). B5: no binding (tested: 1 µM (protocol of Example 3.1)).

The binders below were run against T8, hCD137-mFc-Avi (human, UniProt Q07011 24-186) (assay: cell-based, 100 nM hCD137-mFc-Avi with 200 nM antibody, competitor human CD137L on DO11.10 cells, GMFI normalised to G1/11D4 = 0 and G1/MOR7480.1 = 100; mean of n=2).
T8 construct: dimer; also called human CD137-mFc-Avi; human CD137-mFc
Procedure: The cells were washed once in PBS and 100 μl/well of secondary antibody (anti-mouse Fc-488 antibody, Jackson Immuno Research, 115-546-008) diluted 1:1000 in PBS containing 2% BSA was then added and incubated for 30 mins at 4° C. in the dark. The cells were washed once with PBS and resuspended in 100 μl of PBS containing DAPI (Biotium, 40043) at 1 μg/ml. The cells were analysed using a Canto II flow cytometer (BD Bioscience). Dead cells were excluded and the fluorescence in the FITC channel (488 nm/530/30) was measured. […] The data was analysed using a one-way ANOVA test and Tukey's multiple comparisons test using GraphPad Prism.
For B1, the “% CD137 ligand blocking activity” value was 65%. In the case of B2, the “% CD137 ligand blocking activity” value is reported as 46%. In the case of B3, the “% CD137 ligand blocking activity” value is reported as 76%. B4 was tested, and the “% CD137 ligand blocking activity” value was 105%.
